Results as given in US20060051832A1, “Modified sarcosine oxidase, process for producing the same and reagent composition using the same” (Toyo Boseki Kabushiki Kaisha, priority 2002, published 2006).

Experiments:
Type in all cases: biochemical, Arthrobacter sp. TE1826
[1] = substrate: CNCC(=O)O; test: Km of modified sarcosine oxidase SAOM5B; details: other: SAOM5B, 37° C., pH 8.0
Procedure: (§1) • 100 mM Tris-HCl buffer (pH 8.0) (containing 200 mM sarcosine and 0.1% Triton X-100) • 0.1% 4-aminoantipyrine • 0.1% phenol • 25 U/mL peroxidase <Measurement Condition>
(§2) A reaction mixture is prepared by mixing the above Tris-HCl buffer, 4-aminoantipyrine solution, phenol solution and peroxidase solution at a ratio of 5:1:2:2. The reaction mixture (1 mL) is taken to a test tube, preliminarily warmed at 37° C. for about 5 min, and 0.05 mL of an enzyme solution is added to start the reaction. The reaction at 37° C. is performed accurately for 10 min, then 2.0 mL of an aqueous solution of 0.25% SDS is added to stop the reaction, and an absorbance at 500 nm of this solution is measured. In a blind test, distilled water instead of the enzyme solution is added to the reagent mixture, and the same manipulation is followed to measure the absorbance. […] The reactivity to proline was measured as a relative ratio of activities when sarcosine in the above reagent was replaced by L-proline at the same concentration. […]
(§3) Various sarcosine oxidases obtained in Example 3B and Comparative Example 1 were evaluated.
(§4) Action on proline was calculated from a relative ratio (%) of the enzyme activity using L-proline as the substrate to the enzyme activity suing sarcosine as the substrate in the above activity measurement method. […]

[2] = substrate: CNCC(=O)O; test: Km of modified sarcosine oxidase SAOM2B; details: other: SAOM2B, V94G, 37° C., pH 8.0
Procedure: as §1, §2, §3, §4

[3] = substrate: CNCC(=O)O; test: Km of modified sarcosine oxidase SAOM6B; details: other: SAOM6B, 37° C., pH 8.0
Procedure: as §1, §2, §3, §4

[4] = substrate: CNCC(=O)O; test: Km of modified sarcosine oxidase SAOM1B; details: other: SAOM1B, K89R, 37° C., pH 8.0
Procedure: as §1, §2, §3, §4

[5] = substrate: CNCC(=O)O; test: Km of unmodified sarcosine oxidase (control, Comparative Example 1); details: other: unmodified (control), 37° C., pH 8.0
Procedure: as §1, §2, §3, §4

[6] = substrate: CNCC(=O)O; test: Km of modified sarcosine oxidase SAOM8B; details: other: SAOM8B, 37° C., pH 8.0
Procedure: as §1, §2, §3, §4

[7] = substrate: CNCC(=O)O; test: Km of modified sarcosine oxidase SAOM7B; details: other: SAOM7B, 37° C., pH 8.0
Procedure: as §1, §2, §3, §4

B1: Arthrobacter sp. TE1826 sarcosine oxidase (SEQ ID NO:1) variant SAOM5B, V94G, E250Q, K89R (Arthrobacter sp. TE1826; E250Q/K89R/V94G) (protein)
chain: MSIKKDYDVIVVGAGSMGMAAGYYLSKQGVKTLLVDSFHPPHTNGSHHGDTRIIRHAYGEGREYVPFALRAQELWYELEKETHHKIFTRTGVLGFGPKGEAPFVAETMEAAKEHSLDVDLLEGSEINKRWPGVTVPENYNAIFEKNSGVLFSENCIRAYRELAEANGAKVLTYTPVEDFEIAEDFVKIQTAYGSFTASKLIVSMGAWNSKLLSKLNIEIPLQPYRQVVGFFECDEKKYSNTHGYPAFMVQVPTGIYYGFPSFGGCGLKIGYHTYGQKIDPDTINREFGIYPEDEGNIRKFLETYMPGATGELKSGDVCMYTKTPDEHFVIDLHPQFSNVAIAAGFSGHGFKFSSVVGETLSQLAVTGKTEHDISIFSINRPALKQKETI
[1]
  Km: 3.3 mM mM

B2: Arthrobacter sp. TE1826 sarcosine oxidase (SEQ ID NO:1) variant SAOM2B, V94G (Arthrobacter sp. TE1826; V94G) (protein)
chain: MSIKKDYDVIVVGAGSMGMAAGYYLSKQGVKTLLVDSFHPPHTNGSHHGDTRIIRHAYGEGREYVPFALRAQELWYELEKETHHKIFTKTGVLGFGPKGEAPFVAETMEAAKEHSLDVDLLEGSEINKRWPGVTVPENYNAIFEKNSGVLFSENCIRAYRELAEANGAKVLTYTPVEDFEIAEDFVKIQTAYGSFTASKLIVSMGAWNSKLLSKLNIEIPLQPYRQVVGFFECDEKKYSNTHGYPAFMVEVPTGIYYGFPSFGGCGLKIGYHTYGQKIDPDTINREFGIYPEDEGNIRKFLETYMPGATGELKSGDVCMYTKTPDEHFVIDLHPQFSNVAIAAGFSGHGFKFSSVVGETLSQLAVTGKTEHDISIFSINRPALKQKETI
[2]
  Km: 4.1 mM mM

B3: Arthrobacter sp. TE1826 sarcosine oxidase (SEQ ID NO:1) variant SAOM6B, K89R, V94G, S213P, E250Q (Arthrobacter sp. TE1826; E250Q/K89R/S213P/V94G) (protein)
chain: MSIKKDYDVIVVGAGSMGMAAGYYLSKQGVKTLLVDSFHPPHTNGSHHGDTRIIRHAYGEGREYVPFALRAQELWYELEKETHHKIFTRTGVLGFGPKGEAPFVAETMEAAKEHSLDVDLLEGSEINKRWPGVTVPENYNAIFEKNSGVLFSENCIRAYRELAEANGAKVLTYTPVEDFEIAEDFVKIQTAYGSFTASKLIVSMGAWNSKLLPKLNIEIPLQPYRQVVGFFECDEKKYSNTHGYPAFMVQVPTGIYYGFPSFGGCGLKIGYHTYGQKIDPDTINREFGIYPEDEGNIRKFLETYMPGATGELKSGDVCMYTKTPDEHFVIDLHPQFSNVAIAAGFSGHGFKFSSVVGETLSQLAVTGKTEHDISIFSINRPALKQKETI
[3]
  Km: 3.5 mM mM

B4: Arthrobacter sp. TE1826 sarcosine oxidase (SEQ ID NO:1) variant SAOM1B, K89R (Arthrobacter sp. TE1826; K89R) (protein)
chain: MSIKKDYDVIVVGAGSMGMAAGYYLSKQGVKTLLVDSFHPPHTNGSHHGDTRIIRHAYGEGREYVPFALRAQELWYELEKETHHKIFTRTGVLVFGPKGEAPFVAETMEAAKEHSLDVDLLEGSEINKRWPGVTVPENYNAIFEKNSGVLFSENCIRAYRELAEANGAKVLTYTPVEDFEIAEDFVKIQTAYGSFTASKLIVSMGAWNSKLLSKLNIEIPLQPYRQVVGFFECDEKKYSNTHGYPAFMVEVPTGIYYGFPSFGGCGLKIGYHTYGQKIDPDTINREFGIYPEDEGNIRKFLETYMPGATGELKSGDVCMYTKTPDEHFVIDLHPQFSNVAIAAGFSGHGFKFSSVVGETLSQLAVTGKTEHDISIFSINRPALKQKETI
[4]
  Km: 3.4 mM mM

B5: Arthrobacter sp. TE1826 sarcosine oxidase, wild type (unmodified), SEQ ID NO:1 (Arthrobacter sp. TE1826) (protein)
chain: MSIKKDYDVIVVGAGSMGMAAGYYLSKQGVKTLLVDSFHPPHTNGSHHGDTRIIRHAYGEGREYVPFALRAQELWYELEKETHHKIFTKTGVLVFGPKGEAPFVAETMEAAKEHSLDVDLLEGSEINKRWPGVTVPENYNAIFEKNSGVLFSENCIRAYRELAEANGAKVLTYTPVEDFEIAEDFVKIQTAYGSFTASKLIVSMGAWNSKLLSKLNIEIPLQPYRQVVGFFECDEKKYSNTHGYPAFMVEVPTGIYYGFPSFGGCGLKIGYHTYGQKIDPDTINREFGIYPEDEGNIRKFLETYMPGATGELKSGDVCMYTKTPDEHFVIDLHPQFSNVAIAAGFSGHGFKFSSVVGETLSQLAVTGKTEHDISIFSINRPALKQKETI
[5]
  Km: 3.4 mM mM

B6: Arthrobacter sp. TE1826 sarcosine oxidase (SEQ ID NO:1) variant SAOM8B, K89R, V94G, N166K, M204A, S213P, E250Q (Arthrobacter sp. TE1826; … (protein)
chain: MSIKKDYDVIVVGAGSMGMAAGYYLSKQGVKTLLVDSFHPPHTNGSHHGDTRIIRHAYGEGREYVPFALRAQELWYELEKETHHKIFTRTGVLGFGPKGEAPFVAETMEAAKEHSLDVDLLEGSEINKRWPGVTVPENYNAIFEKNSGVLFSENCIRAYRELAEAKGAKVLTYTPVEDFEIAEDFVKIQTAYGSFTASKLIVSAGAWNSKLLPKLNIEIPLQPYRQVVGFFECDEKKYSNTHGYPAFMVQVPTGIYYGFPSFGGCGLKIGYHTYGQKIDPDTINREFGIYPEDEGNIRKFLETYMPGATGELKSGDVCMYTKTPDEHFVIDLHPQFSNVAIAAGFSGHGFKFSSVVGETLSQLAVTGKTEHDISIFSINRPALKQKETI
[6]
  Km: 3.4 mM mM

B7: Arthrobacter sp. TE1826 sarcosine oxidase (SEQ ID NO:1) variant SAOM7B, K89R, V94G, M204A, S213P, E250Q (Arthrobacter sp. TE1826; E250Q/K89R/M204A/S213P/V94G) (protein)
chain: MSIKKDYDVIVVGAGSMGMAAGYYLSKQGVKTLLVDSFHPPHTNGSHHGDTRIIRHAYGEGREYVPFALRAQELWYELEKETHHKIFTRTGVLGFGPKGEAPFVAETMEAAKEHSLDVDLLEGSEINKRWPGVTVPENYNAIFEKNSGVLFSENCIRAYRELAEANGAKVLTYTPVEDFEIAEDFVKIQTAYGSFTASKLIVSAGAWNSKLLPKLNIEIPLQPYRQVVGFFECDEKKYSNTHGYPAFMVQVPTGIYYGFPSFGGCGLKIGYHTYGQKIDPDTINREFGIYPEDEGNIRKFLETYMPGATGELKSGDVCMYTKTPDEHFVIDLHPQFSNVAIAAGFSGHGFKFSSVVGETLSQLAVTGKTEHDISIFSINRPALKQKETI
[7]
  Km: 3.4 mM mM
